According to US20220041665A1, “POLYNUCLEOTIDE AND USES THEREOF” (Helsingin yliopisto, priority 2019, published 2022):

Tests used:
Assay in all cases: cell-based or functional assay
[1] = biological target: LBR tagged C-terminally with miniIAA7-mEGFP (human; Arabidopsis thaliana) (UniProt Q14739)
[2] = biological target: NMIIa (MYH9) tagged N-terminally with miniIAA7-mEGFP (Arabidopsis thaliana; human) (UniProt P35579)
[3] = biological target: Non-nuclear targets expressed at low levels (seipin, NPC1, PEX3 and Glut1), tagged with miniIAA7-mEGFP
[4] = biological target: all targets (endogenous loci tagged homozygously with miniIAA7-mEGFP N- or C-terminally)
[5] = biological target: seipin tagged with miniAID-mEGFP (miniAID = AtIAA17 amino acid residues 68-132) (human; Arabidopsis thaliana) (UniProt Q96G97)
[6] = biological target: seipin tagged with miniIAA7-mEGFP (miniIAA7 = AtIAA7 amino acids 37-104) (human; Arabidopsis thaliana) (UniProt Q96G97)

target protein level at 1 h IAA, FACS of GFP [1] | target protein level at 1 h IAA, FACS of GFP [2] | target protein level at 1 h IAA, FACS of GFP [3] | target protein level at 0 h IAA (basal degradation), FACS of GFP (% levels of control) [4] | target protein level at 16 h IAA, FACS of GFP [4] | target protein level before IAA addition (0 h IAA), FACS of GFP, compared to OsTIR1 [5] | auxin-inducible protein reduction at 1 h IAA, FACS of GFP, compared to miniAID [6] | basal degradation at 0 h IAA, FACS of GFP [4] | depletion efficiency at 16 h IAA, FACS of GFP [4] | Binder
< 12% | < 12% | 2 to 5% | 86 to 109 | 2 to 5 % levels | 5 fold | 3 fold |  |  | Arabidopsis thaliana AFB2 (AtAFB2), auxin perceptive F-box protein, tagged with mCherry (receptor, not shown: large carriers) MNYFPDEVIEHVFDFVTSHKDRNAISLVCKSWYKIERYSRQKVFIGNCYAINPERLLRRFPCLKSLTLKGKPHFADFNLVPHEWGGFVLPWIEALARSRVGLEELRLKRMVVTDESLELLSRSFVNFKSLVLVSCEGFTTDGLASIAANCRHLRDLDLQENEIDDHRGQWLSCFPDTCTTLVTLNFACLEGETNLVALERLVARSPNLKSLKLNRAVPLDALARLMACAPQIVDLGVGSYENDPDSESYLKLMAVIKKCTSLRSLSGFLEAAPHCLSAFHPICHNLTSLNLSYAAEIHGSHLIKLIQHCKKLQRLWILDSIGDKGLEVVASTCKELQELRVFPSDLLGGGNTAVTEEGLVAISAGCPKLHSILYFCQQMTNAALVTVAKNCPNFIRFRLCILEPNKPDHVTSQPLDEGFGAIVKACKSLRRLSLSGLLTDQVFLYIGMYANQLEMLSIAFAGDTDKGMLYVLNGCKKMKKLEIRDSPFGDTALLADVSKYETMRSLWMSSCEVTLSGCKRLAEKAPWLNVEIINENDNNRMEENGHEGRQKVDKLYLYRTVVGTRMDAPPFVWILGGSGG
 |  |  |  |  |  |  | 12 to 37% | 2 to 7% | TIR1 derived from Oryza sativa (OsTIR1) (receptor, UniProt Q7XVM8 1-575, looked up) MTYFPEEVVEHIFSFLPAQRDRNTVSLVCKVWYEIERLSRRGVFVGNCYAVRAGRVAARFPNVRALTVKGKPHFADFNLVPPDWGGYAGPWIEAAARGCHGLEELRMKRMVVSDESLELLARSFPRFRALVLISCEGFSTDGLAAVASHCKLLRELDLQENEVEDRGPRWLSCFPDSCTSLVSLNFACIKGEVNAGSLERLVSRSPNLRSLRLNRSVSVDTLAKILLRTPNLEDLGTGNLTDDFQTESYFKLTSALEKCKMLRSLSGFWDASPVCLSFIYPLCAQLTGLNLSYAPTLDASDLTKMISRCVKLQRLWVLDCISDKGLQVVASSCKDLQELRVFPSDFYVAGYSAVTEEGLVAVSLGCPKLNSLLYFCHQMTNAALVTVAKNCPNFTRFRLCILEPGKPDVVTSQPLDEGFGAIVRECKGLQRLSISGLLTDKVFMYIGKYAKQLEMLSIAFAGDSDKGMMHVMNGCKNLRKLEIRDSPFGDAALLGNFARYETMRSLWMSSCNVTLKGCQVLASKMPMLNVEVINERDGSNEMEENHGDLPKVEKLYVYRTTAGARDDAPNFVKIL
